From patent US20240132578A1

Key:
[1] = biological target: HIV-1 92BR020 envelope (Env) on pseudovirus (HIV-1); assay: cell-based or functional assay
[2] = biological target: HIV-1 Env of isolate MGRM-A-002 (clade A pseudovirus) (HIV-1); assay: cell-based or functional assay
[3] = biological target: HIV-1 Env of isolate SF162 (HIV-1) (UniProt P19550); assay: cell-based or functional assay
[4] = biological target: HIV-1 MGRM-G-001 Env (pseudovirus) (HIV-1); assay: cell-based or functional assay
[5] = biological target: HIV-1 envelope glycoprotein (Env) of isolate MGRM-C-024 (HIV-1); assay: cell-based or functional assay
[6] = biological target: HIV-1 envelope glycoprotein (Env) of isolate MGRM-Chronic-B-011, on pseudovirus (HIV-1); assay: cell-based or functional assay
[7] = biological target: WT JR-FL gp120 (HIV-1 JR-FL); assay: ELISA, antigen-coated wells, mAb titrated; EC50 by nonlinear regression
[8] = biological target: HIV-1 92RW020 Env (HIV-1); assay: cell-based or functional assay
[9] = biological target: HIV-1 Env of isolate MGRM-AE-004 (pseudovirus) (HIV-1); assay: cell-based or functional assay
[10] = biological target: HIV-1 Env of isolate MGRM-AE-005 (pseudovirus) (HIV-1); assay: cell-based or functional assay
[11] = biological target: HIV-1 Env of isolate MGRM-AE-006 (pseudovirus) (HIV-1); assay: cell-based or functional assay
[12] = biological target: HIV-1 Env of isolate 92UG031 (pseudovirus) (HIV-1); assay: cell-based or functional assay
[13] = biological target: HIV-1 Env of isolate 92UG037 (pseudovirus) (HIV-1); assay: cell-based or functional assay
[14] = biological target: HIV-1 Env of isolate 92WR020 (pseudovirus) (HIV-1); assay: cell-based or functional assay
[15] = biological target: HIV-1 Env of isolate 92WR021 (pseudovirus) (HIV-1); assay: cell-based or functional assay
[16] = biological target: HIV-1 Env of isolate 92WR024 (pseudovirus) (HIV-1); assay: cell-based or functional assay
[17] = biological target: HIV-1 Env of isolate 93IN905 (HIV-1); assay: cell-based or functional assay
[18] = biological target: HIV-1 Env of isolate 93MW959 (HIV-1); assay: cell-based or functional assay
[19] = biological target: HIV-1 Env of isolate 93UG077 (pseudovirus) (HIV-1); assay: cell-based or functional assay
[20] = biological target: HIV-1 Env of isolate 93WR029 (pseudovirus) (HIV-1); assay: cell-based or functional assay
[21] = biological target: HIV-1 Env of isolate 94UG103 (pseudovirus) (HIV-1); assay: cell-based or functional assay
[22] = biological target: HIV-1 Env of isolate 97ZA012 (HIV-1); assay: cell-based or functional assay
[23] = biological target: HIV-1 Env of isolate 98IN022 (HIV-1); assay: cell-based or functional assay
[24] = biological target: HIV-1 Env of isolate JRCSF (HIV-1) (UniProt P20871); assay: cell-based or functional assay
[25] = biological target: HIV-1 Env of isolate MGRM-Chronic-B-010 (HIV-1); assay: cell-based or functional assay
[26] = biological target: HIV-1 Env of isolate MGRM-Chronic-B-011 (HIV-1); assay: cell-based or functional assay
[27] = biological target: HIV-1 Env of isolate MGRM-Chronic-B-012 (HIV-1); assay: cell-based or functional assay
[28] = biological target: HIV-1 Env of isolate MGRM-Chronic-B-017 (HIV-1); assay: cell-based or functional assay
[29] = biological target: HIV-1 Env of isolate MGRM-Chronic-B-018 (HIV-1); assay: cell-based or functional assay
[30] = biological target: HIV-1 Env of isolate MGRM-Chronic-B-020 (HIV-1); assay: cell-based or functional assay
[31] = biological target: HIV-1 Env of isolate MGRM-Chronic-B-023 (HIV-1); assay: cell-based or functional assay
[32] = biological target: HIV-1 Env of isolate MGRM-Chronic-B-024 (HIV-1); assay: cell-based or functional assay
[33] = biological target: HIV-1 Env of isolate NL43 (HIV-1); assay: cell-based or functional assay
[34] = biological target: HIV-1 Env of isolate PVO.4 (HIV-1); assay: cell-based or functional assay
[35] = biological target: HIV-1 Env of isolate QH0692.42 (HIV-1); assay: cell-based or functional assay
[36] = biological target: HIV-1 Env of isolate SC422661.8 (HIV-1); assay: cell-based or functional assay
[37] = biological target: HIV-1 Env of isolate THR0.18 (HIV-1); assay: cell-based or functional assay
[38] = biological target: HIV-1 Env of isolate TRJ04551.58 (HIV-1); assay: cell-based or functional assay
[39] = biological target: HIV-1 Env of isolate TRO.11 (HIV-1); assay: cell-based or functional assay
[40] = biological target: HIV-1 Env of isolate VLGCB3 (HIV-1); assay: cell-based or functional assay
[41] = biological target: HIV-1 JR-CSF Env I424A (HIV-1 (isolate JR-CSF)) (UniProt P20871); assay: cell-based or functional assay
[42] = biological target: HIV-1 JR-CSF Env L416A (HIV-1 (isolate JR-CSF)) (UniProt P20871); assay: cell-based or functional assay
[43] = biological target: HIV-1 JR-CSF Env R419A (HIV-1 (isolate JR-CSF)) (UniProt P20871); assay: cell-based or functional assay

Chain of 1443_C16 (PG16) (TCN-116) (antibody) (VH): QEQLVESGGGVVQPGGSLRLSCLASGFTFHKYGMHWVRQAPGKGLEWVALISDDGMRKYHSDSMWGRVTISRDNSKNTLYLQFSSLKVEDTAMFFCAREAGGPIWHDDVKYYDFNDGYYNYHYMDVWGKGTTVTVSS
Chain of 1443_C16 (PG16) (TCN-116) (antibody) (VL): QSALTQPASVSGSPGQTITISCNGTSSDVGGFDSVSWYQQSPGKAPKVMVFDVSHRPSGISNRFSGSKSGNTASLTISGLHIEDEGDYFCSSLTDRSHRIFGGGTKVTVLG

2G12 (antibody) showed a neutralization IC50 [1] of 2.26 µg/mL, an IC50 (µg/ml), pseudovirus neutralization [2] greater than 50 µg/mL and an IC50 (µg/ml), pseudovirus neutralization [3] of 1.67 µg/mL. For the same substance, the IC50 (µg/ml), pseudovirus neutralization [4] was greater than 50 µg/mL and the IC50 (µg/ml), pseudovirus neutralization [5] was greater than 50 µg/mL.

2F5 (antibody) gave a neutralization IC50 [1] greater than 50 µg/mL, an IC50 (µg/ml), pseudovirus neutralization [2] greater than 50 µg/mL and an IC50 (µg/ml), pseudovirus neutralization [3] of 2.52 µg/mL. The IC50 (µg/ml), pseudovirus neutralization [4] was 4.1 µg/mL and the IC50 (µg/ml), pseudovirus neutralization [5] was greater than 50 µg/mL.

With 4838_L06 (PGT-121) (antibody) the IC50, pseudovirus neutralization [6] was greater than 50 µg/mL and the EC50 [7] was 0.2 µg/mL.

Work on 4877_D15 (PGT-122) (antibody) yielded an IC50, pseudovirus neutralization [8] of 0.0072 µg/mL, an IC50 (µg/mL), pseudovirus neutralization [9] greater than 50 µg/mL and an IC50 (µg/mL), pseudovirus neutralization [10] greater than 50 µg/mL. It also gave an IC50 (µg/mL), pseudovirus neutralization [11] greater than 50 µg/mL, an IC50, pseudovirus neutralization [6] greater than 50 µg/mL and an EC50 [7] of 0.3 µg/mL.

With 1443_C16 (PG16) (TCN-116) (antibody) the neutralization IC50 [1] was greater than 50 µg/mL, the IC50 (µg/ml), pseudovirus neutralization [2] was 0.004 µg/mL and the IC50 (µg/ml), pseudovirus neutralization [3] was greater than 50 µg/mL. The IC50 (µg/ml), pseudovirus neutralization [4] was 0.15 µg/mL and the IC50 (µg/ml), pseudovirus neutralization [5] was 0.04 µg/mL.

5136_H01 (PGT-131) (antibody) was tested, and the IC50 (µg/mL), pseudovirus neutralization [12] was greater than 50 µg/mL, the IC50 (µg/mL), pseudovirus neutralization [13] was 0.048 µg/mL and the IC50 (µg/mL), pseudovirus neutralization [14] was 0.168 µg/mL. The IC50 (µg/mL), pseudovirus neutralization [15] was 0.012 µg/mL, the IC50 (µg/mL), pseudovirus neutralization [16] was greater than 50 µg/mL and the IC50 (µg/mL), pseudovirus neutralization [17] was 0.177 µg/mL. For the same substance, the IC50 (µg/mL), pseudovirus neutralization [18] was greater than 50 µg/mL, the IC50 (µg/mL), pseudovirus neutralization [19] was greater than 50 µg/mL and the IC50 (µg/mL), pseudovirus neutralization [20] was greater than 50 µg/mL. The IC50 (µg/mL), pseudovirus neutralization [21] was 1.1 µg/mL, the IC50 (µg/mL), pseudovirus neutralization [22] was 1.81 µg/mL and the IC50 (µg/mL), pseudovirus neutralization [23] was greater than 50 µg/mL. It also gave an IC50 (µg/mL), pseudovirus neutralization [24] of 0.029 µg/mL, an IC50 (µg/mL), pseudovirus neutralization [25] of 0.016 µg/mL and an IC50 (µg/mL), pseudovirus neutralization [26] of 6.47 µg/mL. The IC50 (µg/mL), pseudovirus neutralization [27] was 15.7 µg/mL, the IC50 (µg/mL), pseudovirus neutralization [28] was greater than 50 µg/mL and the IC50 (µg/mL), pseudovirus neutralization [29] was greater than 50 µg/mL. For the same substance, the IC50 (µg/mL), pseudovirus neutralization [30] was 0.053 µg/mL, the IC50 (µg/mL), pseudovirus neutralization [31] was greater than 50 µg/mL and the IC50 (µg/mL), pseudovirus neutralization [32] was greater than 50 µg/mL. It also gave an IC50 (µg/mL), pseudovirus neutralization [33] greater than 50 µg/mL, an IC50 (µg/mL), pseudovirus neutralization [34] greater than 50 µg/mL and an IC50 (µg/mL), pseudovirus neutralization [35] greater than 50 µg/mL. The IC50 (µg/mL), pseudovirus neutralization [36] was greater than 50 µg/mL, the IC50 (µg/mL), pseudovirus neutralization [3] was 0.025 µg/mL and the IC50 (µg/mL), pseudovirus neutralization [37] was greater than 50 µg/mL. For the same substance, the IC50 (µg/mL), pseudovirus neutralization [38] was 0.088 µg/mL, the IC50 (µg/mL), pseudovirus neutralization [39] was 1.91 µg/mL and the IC50 (µg/mL), pseudovirus neutralization [40] was greater than 50 µg/mL. For the same substance, the Fold IC50 increase relative to wild-type (pseudovirus neutralization) [41] was 4.8 fold, the Fold IC50 increase relative to wild-type (pseudovirus neutralization) [42] was 1 fold and the Fold IC50 increase relative to wild-type (pseudovirus neutralization) [43] was 1.7 fold. The EC50 [7] was 0.4 µg/mL.
